Reference: article PMC7835349 (Communications Biology, 2021)
Several values for one entry are separate records, joined by “and”; a condition that tells them apart may be missing. Equal entries are not always repeated.

Columns and labels:
[1] = test system: luciferase-tagged Ri-1 tumour cells; test: Disseminated luciferase-tagged Ri-1 DLBCL model (bioluminescence); format: in vivo, C.B-17 SCID mouse
Description: Ten million luciferase-tagged Ri-1 tumour cells were injected intravenously in the tail vein of C.B.−17 SCID female mice in a volume of 0.1 ml. Tumour burden (determined by Xenogen IVIS imaging), body weight and health condition were recorded twice weekly for the duration of the study. For Xenogen imaging, mice received an intraperitoneal administration of 150 mg/kg D- Luciferin 10 to 15 minutes prior to imaging. Imaging was performed under isoflurane anaesthesia and data analyzed using Living Image software (Xenogen). Statistical significance was evaluated using non-parametric, unpaired, two-tailed t-test.

[2] = Body weight and tolerability in RS4;11 xenograft mice; format: in vivo, C.B-17 SCID mouse; conditions: for Percentage Body Weight Change post Dosing: single animals
Description: Female C.B.−17 SCID mice were purchased from Charles River Laboratories. Mice were 5–8 weeks old at the time of tumour implantation. All xenograft studies were conducted at our Association for the Assessment and Accreditation of Laboratory Animal Care accredited facility in Waltham, MA in accordance with ethical regulations described in the guidelines established by the internal Institutional Animal Care and Use Committee. The dendrimer conjugates were formulated in citrate/phosphate buffer pH 5.0, diluted 1:10 with 5% glucose containing 1% w/v Kolliphor HS15, and AZD4320 was formulated in 30% HP-β-CD and dosed as a weekly intravenous (IV) administration at a volume of 5 ml/kg at the indicated doses. Five million RS4;11, five million SUDHL-4 or five million OCI-LY-10 cells were injected subcutaneously in the right flank of mice in a volume of 0.1 ml. Tumour volumes (measured by caliper), animal body weight, and tumor condition were recorded twice weekly for the duration of the study. The tumour volume was calculated (taking length to be the longest diameter across the tumour and width to be the corresponding perpendicular diameter) using the formula: length (mm) x width (mm)^2/0.52. For efficacy studies, mice were randomized based on tumour volumes using stratified sampling and enrolled into control and treatment groups. Tumour growth inhibition from the start of treatment was quantified by measuring the difference in tumour volume between control and treated groups. Survival analysis was evaluated using Mantel-Cox test. Tumours were also taken for bioanalysis. […]
Supplementary Figure 13. Percent total body weight change in mouse RS4;11 xenograft model (n=6). Percent change in body weight of mice measured twice weekly after start of treatment with various doses of AZD0466. […]

AZD4320-MIDA-PEG2100 [AZD0466]
Raw bioluminescence counts in individual animals ([1]; AZD0466 34 mg/kg (10mg/kg AZD4320), day 1): 1011000 counts and 1455000 counts and 962000 counts and 1223000 counts and 856300 counts
Raw bioluminescence counts in individual animals ([1]; AZD0466 34 mg/kg (10mg/kg AZD4320), day 4): 1131000 counts and 1477000 counts and 863000 counts and 1453000 counts and 1099000 counts
Raw bioluminescence counts in individual animals ([1]; AZD0466 34 mg/kg (10mg/kg AZD4320), day 8): 2077000 counts and 2641000 counts and 963600 counts and 3688000 counts and 1848000 counts
Raw bioluminescence counts in individual animals ([1]; AZD0466 34 mg/kg (10mg/kg AZD4320), day 11): 2663000 counts and 3475000 counts and 794700 counts and 3942000 counts and 2369000 counts
Raw bioluminescence counts in individual animals ([1]; AZD0466 34 mg/kg (10mg/kg AZD4320), day 15): 3909000 counts and 5355000 counts and 1268000 counts and 8178000 counts and 3745000 counts
Raw bioluminescence counts in individual animals ([1]; AZD0466 103 mg/kg (30mg/kg AZD4320), day 1): 1023000 counts and 885100 counts and 876200 counts and 2011000 counts and 1243000 counts
Raw bioluminescence counts in individual animals ([1]; AZD0466 103 mg/kg (30mg/kg AZD4320), day 4): 712200 counts and 758000 counts and 861600 counts and 963300 counts and 1088000 counts
Raw bioluminescence counts in individual animals ([1]; AZD0466 103 mg/kg (30mg/kg AZD4320), day 8): 888700 counts and 911000 counts and 1080000 counts and 921400 counts and 1303000 counts
Raw bioluminescence counts in individual animals ([1]; AZD0466 103 mg/kg (30mg/kg AZD4320), day 11): 687900 counts and 678400 counts and 868400 counts and 651900 counts and 817800 counts
Raw bioluminescence counts in individual animals ([1]; AZD0466 103 mg/kg (30mg/kg AZD4320), day 15): 1023000 counts and 956600 counts and 1075000 counts and 787100 counts and 1030000 counts
Raw bioluminescence counts in individual animals ([1]; AZD0466 340 mg/kg (100mg/kg AZD4320), day 1): 851500 counts and 1286000 counts and 895800 counts and 1120000 counts and 1558000 counts
Raw bioluminescence counts in individual animals ([1]; AZD0466 340 mg/kg (100mg/kg AZD4320), day 4): 675300 counts and 732000 counts and 775100 counts and 773400 counts and 665700 counts
Raw bioluminescence counts in individual animals ([1]; AZD0466 340 mg/kg (100mg/kg AZD4320), day 8): 696900 counts and 758300 counts and 613100 counts and 757700 counts and 754200 counts
Raw bioluminescence counts in individual animals ([1]; AZD0466 340 mg/kg (100mg/kg AZD4320), day 11): 628500 counts and 817700 counts and 761500 counts and 744200 counts and 883400 counts
Raw bioluminescence counts in individual animals ([1]; AZD0466 340 mg/kg (100mg/kg AZD4320), day 15): 1033000 counts and 1121000 counts and 987400 counts and 873700 counts and 861800 counts
anti-tumour activity ([1]; disseminated Ri-1, once weekly IV): dose-dependent anti-tumour activity
Percentage Body Weight Change post Dosing ([2]; 10 mg/kg (3mg/kg AZD4320), day 41 post implant): 0%
Percentage Body Weight Change post Dosing ([2]; 10 mg/kg (3mg/kg AZD4320), day 44 post implant): -1.896% and 0% and -3.365% and -4.5045% and -0.9756% and 0.4739%
Percentage Body Weight Change post Dosing ([2]; 10 mg/kg (3mg/kg AZD4320), day 48 post implant): 2.37% and 2.899% and -4.327% and 0% (2×) and -0.9479%
Percentage Body Weight Change post Dosing ([2]; 10 mg/kg (3mg/kg AZD4320), day 51 post implant): -2.8436% and -2.415% and -3.365% and -4.054% and -0.9756% and -3.318%
Percentage Body Weight Change post Dosing ([2]; 10 mg/kg (3mg/kg AZD4320), day 55 post implant): 1.4218% and 2.415% and -1.923% and 0.9009% and 1.951% and 0.4739%
Percentage Body Weight Change post Dosing ([2]; 10 mg/kg (3mg/kg AZD4320), day 58 post implant): -0.9479% and -0.4831% and -2.885% and 0% and 2.927% and 0.4739%
Percentage Body Weight Change post Dosing ([2]; 10 mg/kg (3mg/kg AZD4320), day 63 post implant): 5.6872% and 4.831% and -0.9615% and 3.6036% and 7.317% and 2.8436%
Percentage Body Weight Change post Dosing ([2]; 10 mg/kg (3mg/kg AZD4320), day 66 post implant): 4.2654% and 2.415% and -4.327% and 0.4505% and 3.415% and -1.4218%
Percentage Body Weight Change post Dosing ([2]; 10 mg/kg (3mg/kg AZD4320), day 70 post implant): 2.8436% and 1.449% and -1.923% and 3.153% and 5.366% and 0.9479%
Percentage Body Weight Change post Dosing ([2]; 10 mg/kg (3mg/kg AZD4320), day 73 post implant): 3.318% and 7.246% and -1.442% and 1.8018% and 6.829% and 0%
Percentage Body Weight Change post Dosing ([2]; 10 mg/kg (3mg/kg AZD4320), day 77 post implant): 3.791% and 4.348% and -2.404% and 2.7027% and 5.854% and 0%
Percentage Body Weight Change post Dosing ([2]; 10 mg/kg (3mg/kg AZD4320), day 80 post implant): 7.109% and 6.763% and 2.404% and 9.268% and 2.8436%
Percentage Body Weight Change post Dosing ([2]; 10 mg/kg (3mg/kg AZD4320), day 83 post implant): 6.635% and 1.932% and 1.923% and 8.78% and 1.4218%
Percentage Body Weight Change post Dosing ([2]; 34 mg/kg (10mg/kg AZD4320), day 41 post implant): 0%
Percentage Body Weight Change post Dosing ([2]; 34 mg/kg (10mg/kg AZD4320), day 44 post implant): -0.9346% and -3.922% and -3.6036% and -0.5155% and -2.427% and -2.913%
Percentage Body Weight Change post Dosing ([2]; 34 mg/kg (10mg/kg AZD4320), day 48 post implant): -2.336% and -1.471% and -2.252% and -1.546% and 0% and -1.456%
Percentage Body Weight Change post Dosing ([2]; 34 mg/kg (10mg/kg AZD4320), day 51 post implant): -2.804% and -6.373% and -5.405% and -1.031% and -4.369% and -1.942%
Percentage Body Weight Change post Dosing ([2]; 34 mg/kg (10mg/kg AZD4320), day 55 post implant): -1.869% and -0.4902% and -2.252% and 1.031% and -1.942% and -0.9709%
Percentage Body Weight Change post Dosing ([2]; 34 mg/kg (10mg/kg AZD4320), day 58 post implant): -1.402% and -3.431% and -3.153% and 1.546% and -2.913% and -0.9709%
Percentage Body Weight Change post Dosing ([2]; 34 mg/kg (10mg/kg AZD4320), day 63 post implant): 2.336% and -2.451% and 0% and 5.361% and 1.942% and 6.311%
Percentage Body Weight Change post Dosing ([2]; 34 mg/kg (10mg/kg AZD4320), day 66 post implant): -2.336% and -4.412% and 0% and 1.031% and 1.456% and 6.796%
Percentage Body Weight Change post Dosing ([2]; 34 mg/kg (10mg/kg AZD4320), day 70 post implant): -0.9346% and -5.392% and 0.4505% and 2.062% and 2.913% and 2.427%
Percentage Body Weight Change post Dosing ([2]; 34 mg/kg (10mg/kg AZD4320), day 73 post implant): 2.336% and -3.431% and 2.252% and 1.546% and 3.883% and 3.398%
Percentage Body Weight Change post Dosing ([2]; 34 mg/kg (10mg/kg AZD4320), day 77 post implant): 3.271% and -3.922% and 1.351% and 3.093% and 2.913% and 2.427%
Percentage Body Weight Change post Dosing ([2]; 34 mg/kg (10mg/kg AZD4320), day 80 post implant): 4.6729% and -1.471% and 7.207% and 5.155% and 3.883% and 6.796%
Percentage Body Weight Change post Dosing ([2]; 34 mg/kg (10mg/kg AZD4320), day 83 post implant): 4.206% and -1.961% and 7.658% and 4.639% and 4.854% and 9.709%
Percentage Body Weight Change post Dosing ([2]; 103 mg/kg (30mg/kg AZD4320), day 41 post implant): 0%
Percentage Body Weight Change post Dosing ([2]; 103 mg/kg (30mg/kg AZD4320), day 44 post implant): -2.415% and -9.211% and -6.161% and -5.804% and 0% and -2%
Percentage Body Weight Change post Dosing ([2]; 103 mg/kg (30mg/kg AZD4320), day 48 post implant): -0.9662% and -3.509% and -6.161% and -4.464% and -1.415% and -2.5%
Percentage Body Weight Change post Dosing ([2]; 103 mg/kg (30mg/kg AZD4320), day 51 post implant): -1.449% and -4.386% and -7.109% and -5.357% and -2.83% and -4%
Percentage Body Weight Change post Dosing ([2]; 103 mg/kg (30mg/kg AZD4320), day 55 post implant): 0.4831% and -0.4386% and -5.213% and -3.125% and 0% and -3.5%
Percentage Body Weight Change post Dosing ([2]; 103 mg/kg (30mg/kg AZD4320), day 58 post implant): -0.9662% and -1.754% and -5.213% and -4.464% and -0.9434% and -5.5%
Percentage Body Weight Change post Dosing ([2]; 103 mg/kg (30mg/kg AZD4320), day 63 post implant): 0.4831% and 1.842% and -3.791% and -2.232% and -1.887% and -2%
Percentage Body Weight Change post Dosing ([2]; 103 mg/kg (30mg/kg AZD4320), day 66 post implant): -1.932% and -0.4386% and -4.2654% and -2.679% and -0.9434% and -2.5%
Percentage Body Weight Change post Dosing ([2]; 103 mg/kg (30mg/kg AZD4320), day 70 post implant): -1.449% and 0.4386% and -3.318% and -1.786% and -0.9434% and -8%
Percentage Body Weight Change post Dosing ([2]; 103 mg/kg (30mg/kg AZD4320), day 73 post implant): 0.4831% and 1.316% and -1.896% and -4.018% and -2.83% and -4%
Percentage Body Weight Change post Dosing ([2]; 103 mg/kg (30mg/kg AZD4320), day 77 post implant): 0.4831% and 1.316% and 0% (2×) and -2.679% and -4%
Percentage Body Weight Change post Dosing ([2]; 103 mg/kg (30mg/kg AZD4320), day 80 post implant): 4.348% and 1.754% and 2.8436% and -1.786% and 0.4717% and -3%
Percentage Body Weight Change post Dosing ([2]; 103 mg/kg (30mg/kg AZD4320), day 83 post implant): 2.415% and 3.509% and 4.2654% and -2.232% and 0.4717% and -2%
tolerability in xenograft mice ([2]; RS4;11 xenograft, all doses): well tolerated
